assay: soluble on expression in E. coli; label from the status in PepcDB or PDB records

| Sequence | soluble on expression in E. coli |
| --- | --- |
| SVTIDHTTENAAPAQAPVSDRAWALFRALDGKGLVPDGYVEGWKKTFEEDFSPRRGAELVARAWTPRRGAELVARAWTDPEFRQLLLTDGTAAVAQYGYLGPQGEYIVAVEDTPTLKNVIVCSLCSCTAWPILGLPPTWYKSFEYRARVVREPRKVLSEMGTEIASDIEIRVYDTTAETRYMVLPQRPAGTEGWSQEQLQEIVTKDCLIGVAIPQVPTV | soluble |
| SYLPAENHEYVAAKEGVMNIQTNQVMKVIFQLPDYLLNRYTQGVNVSAKMIFDAFPERSFDLTFQEIDTEADPKTGSYKVTMVMERPPELGILPGMSGNAYLVSQNSGATKIPDSALFEENGKTYVWRVDDQGVVAKADITMNDNGQILQGLADGDQIIISGINVIEPGIKVRAWVKERGL | not soluble |
| SYPYLMLSGHQYPQMAYYRGTLKKPNQYFGPYPNSNAVRDSIQVLQKVFMLRTCEDSVFEHRDRPCLLYQIKRCTAPCVGHISEEDYRDSVREAATFLNGKTDELTRTLQHKMQTAAANLQFEEAARYRDQIQALGIMQSNQFIDSKNPNNPNDIDLLALAVSDGLVCVHWVSIRGGRHVGDKSFFPDTKNDPEPNGQDYAEAFVAQHYLGKSKPDIIISNFPVPDALKEALEGEHGKQMQFVTKTIGERKVRLKMAEQNAQMAIAQRRLQQSSQQHRIDELAKILGMDSDGLNRLECFDISHTQGEATIASCVVYDEQNIQPSQYRRYNITTAKPGDDYAAMREVLTRRYGKMQEAEANGETVKWPDAVLIDGGKGQIGVAVSVWEELGLHIPLVGIAKGPERKAGMEELILPFTGEVFRLPPNSPALHLLQTVRDESHRFAITGHRKKRDK | not soluble |
| TCGLRQYSQPQFRIKGGLFADIASHPWQAAIFAKHRRSPGERFLCGGILISSCWILSAAHCFQERFPPHHLTVILGRTYRVVPGEEEQKFEVEKYIVHKEFDDDTYDNDIALLQLKSDSSRCAQESSVVRTVCLPPADLQLPDWTECELSGYGKHEALSPFYSERLKEAHVRLYPSSRCTSQHLLNRTVTDNMLCAGDTRSGGPQANLHDACQGDSGGPLVCLNDGRMTLVGIISWGLGCGQKDVPGVYTKVTNYLDWIRDNMRP | soluble |
| TDAMSEEEIKIIINNSYNGGEINQTELAYMQNIFSFDERHAKDIMVPRTQMVTLNEPFNVDELLDTIKEHQFTRYPITEDGDKDHVKGFINVKEFLTEYASGKPIKIANYIHELPMISETTRISDALVRMQREHVHISLIIDEYGGTAGILTMEDILEEIVGEIRDEFDDDEVNDIVKLDDHTY | not soluble |
| TEQERLELEAAAFRRLVAHLDSRKDVQNIDLMNLSGFCRNCLSKWYKAAADEKHIDITLDDAREVVYGMPYSEWKANYQKEASAEQQAAFVKESKH | not soluble |
| TFDIDLQQYGEKLLQNKIGCVVAIEPQTGEILAFISSPTYDPNLLTGRKYSANYKELEKDPYKPLFNRPLMAMYPPGSIFKLAQAAVALQEGVITDKSRFPCDKTLVNCHNHPSPQDLRGAIQWSCNPYFYMVYKKMISQDKNPNKFKDTEINFDEWRHNMLTLGFGQKMLVDLPSSKSGNIPSNAYYDKIYGDLHWKFSTIYSLSIGQGEINVVPIQMANLAALIANKGWYITPHFIKSIGKDGHILEEYKNKHVTSVEPKYFEPIIDGMEQVVLGGTAYWLKIKDIDICGKTGTAENPHGDDHSVYIAFAPKKEPKIAIAVYVENAGFGAMTAAPIAHLMIEKYLKDTITRKPLEDMILNKNLLHKVKVKP | not soluble |
| TFGEEESEACKKAFDLSPFPLLSKQKEAVFTAIESSISAIIGGAGTGKTTVLHAVLTAFEALGYVSDASLCPDKTTTNHNIKTMALSCRAAKRMRDCINKSSDGSRRERQISATSIAQFIHQTVIEDAEGKYLVVIDEASMLDVATMYNIITNIHPNVRILLVGDHYQLPPI | not soluble |
| TGLRPSGTVSCPICMDGYSEIVQNGRLIVSTECGHVFCSQCLRDSLKNANTCPTCRKKINHK | soluble |
| TGRGVKYWFCYGTKCYYFIMNKTTWSGCKANCQHYSVPIVKIEDEDELKFLQRHVIPEGYWIGLSYDKKKKEWAWIDNGPSKFDMKIRKMNFKSRGCVFLSKARIEDTDCNIPYYCICGKKLDKFPD | soluble |
| TGSGELLLTSPKGSLTLFAYPGKPSLVTVSDFSAGLLDGTVAVNHMDYDLKSKHTETLVQLNGIPIQSLLDLQGASKLSATGTIRGAIPVVLDNNLFSIPEGRMDAEKNGLIIYASTPEERAAAGAGMRLTYEALGNFFYSELVSNIVMTPDGNSTISIQLKGRNPDFQNNRPVNLNLNIQQNLLDLFRSLTLSSDIEEAISKKVLENSGG | not soluble |
| THPVEAAERNYERARAELNQANEDVARNQERQAKAVQVYNSRKSELDAANKTLADAIAEIKQFNRFAHDPMAGGHRMWQMAGLKAQRAQTDVNNKQAAFDAAAKEKSDADAALSAAQERRKQKENKEKDAKDKLD | soluble |
| TKDFNWNTDFIFSNAKNEVTDLKQNANVMELISGNGFAKQGYPVRGLFSIPFVGLDKDGIPVIINEKGEATSTDINFQERQNTGFLKYEGPTDPTITGSLGNMFSYKGFRLNLFITYSFGNVIRLNPVFKAYYSDLTAMTREFKNRWTLPGDEAKTNVPAILSKRMYDSNEDLKYAYNAYNYSTERIAKGDFIRLKEISLAYDFPKAWINPLKLTDLSLKVQATNLFLIYADDKLNGQDPEFFNAGGVASPVPRQFTITLRLGL | not soluble |
| TKDFSWTTAFNLSHNKNKILKLADLPWFVDGRYVRKEGYPFNTIYLREYAGVDPETGSALYYDNQQDENGNYTKNKVTDPGQASPIPLKDITPTISGGFMNTFNYKFIDLSFNLSYSFGGYSYDNASYILQDDGYSVISNKSTEQRRRWQKPGDITDVPRFVYGNKKGGNYNSSRAIHSTDHIRLKSLILGLNAPKAWLQKLGIGNARIYFSGTNLLTWAAYDQYDPEMSGVVGFYTPPLKTYAFGLELKF | not soluble |
| TKDFSWTTSLNLSHNKNKIVKLADLPEFIDGNYIRKEGCSYATIYLREYAGVDPNDGRPMYYDNKEDENGNRSRNIVYDPNDADRVELKDIYPKLTGGLMNTFNYKFIDLSFNLSFHLGGYSYDGAMYALQDDGYTAQYNKSTELRRRWKQPGDITDVPRYVYGQEYGGWWNSSRGVHSTDHLRLKSLIVGVSAPQSWLRTIGINSARIYFSGTNLLTWAAYDQYDPELNGIVSYFTPPLKTFAFGLELKF | not soluble |
| TKDFTWDLSYNITWNHNEITKLTGGDDSDYYVEAGDKISRGNNTKVQAHKVGYAANSFYVYQQVYDENGKPIENMFVDRNGNGTIDSGDKYIYKKPAGDVLMGLTSKMQYKNFDFSFSLRASLNNYVYYDFLSNKANVSTSGLFSNNAYSNTSAEAVALGLSGQGDYMSDYFIHNASFLRCDNITLGYSFQNLWKTQTYKGVGGRVYATVQNPFIISKYKGLDPEVKSGIDANPYPRAMTFLLGLSLQF | not soluble |
| TKVKSIPLLIVPPWINKYYILDLSPHNSLIRWLVEQGITVFIISWVNPDETYANKSFYDYLNEGPREAIAVIQKQLRVKQVNTLGFCIGGTLLASLLAYNKATKDHSIRSATFLAAMIDFSDPGDIAVFIDEQQINKLEEEMKSKGYLAGKFMASSFNSLRANDLIWSFFIKNYLRGKSPVPFDILYWNADSTNMPATMHSQYLRWMYLHNNLIKPGKIRLNHIPIDVTNIDIPTFFLSTQKDHIAPWKTTYKGFELMKGPKRFVLGGSGHI | not soluble |
| TLLHPLLMRNGDSRPLHKPTTPLPSLDLLTPPPSEVEPVDTFALEQMARLVEARLADFRIKADVVNYSPGPVITRFELNLAPGVKAARISNLSRDLARSLSTVAVRVVEVIPGKPYVGLELPNKKRQTVYLREVLDNAKFRDNPSPLTVVLGKDIAGEPVVADLAKMPHLLVAGTTGSGASVGVNAMILSMLYKAQPEDVRFIMIDPKMLELSVYEGIPHLLTEVVTDMKDAANALRWCVNEMERRYKLMSALGVRNLAGYNEKIAEADRMMRPIPDPYWKPGDSMDAQHPVLKKEPYIVVLVDEFADLMMTVGKKVEELIARLAQKARAAGIHLVLATQRPSVDVITGLIKANIPTRIAFTVSSKIDSRTILDQAGAESLLGMGDMLYSGPNSTLPVRVHGAFVRDQEVHAVVQDWKARGRPQYVDGITSDSESEGGAGGFDGAEELDPLFDQAVQFVTEKRKASISGVQRQFRIGYNRAARIIEQMEAQGIVSEQGHNGNREVLAPPPFD | soluble |
| TLTIYPAAKPNGLAVVACPGGGYIRLAMNHEGHDMADWFNAQGITYAVLKYRMPNGHHDVPLSDAHQAIRLMREHANEWHIQKVGIMGASAGGHLASTAATHYTAGTRPDFQILFYPVISMDLSNCHKGSRDNLLGKSPSEELVRLYSNELQVTGDTPPAFIMHSSDDGAVPVSNSVSYYLALVKNKVPASLHTYPIGGHGWGFRDSFTYKRQWTGELEKWLREIL | not soluble |
| TNAKASKRVYITFTGYDKKPSIDNLKKLDMSITSNPSKCTHLIAPRILRTSKFLCSIPYGPCVVTMDWINSCLKTHEIVDEEPYLLNDPEKELELGCTLESALKRARAQGPSLLEDYVVYLTSKTVAPENVPAVISIVKSNGGVCSTLNVYNKRLARHLEDGNVVLITCNEDSHIWTNFLDNASQNKTIFLQNYDWLIKTVLRQEIDVNDRIADEFARAV | soluble |
| TNLFHTYQYGKETMRGGSELTLKQSGAPTDQVTHENKSGLDKAYITQWSYGIGETWSLLIPDIKGGSSGYLGYDEKVMETVNPSYAQAIARMNRYWGDQP | not soluble |
| TNSAVVDVSFGFPSLVGFTFMSEMVHQFKMTFPKARVSMYEAQLSAFLPAIRDGRLDFAIGTLSDEMKLQDLHVEPLFESEFVLVANRARIGNGTVRLASLQHEQWVLPETNMGYYSELLTTLQRSGIRRENIVNTDSVVTIYNLVLNAD | not soluble |
| TNVISTLDLNLLTKGGGSWNVDGVNMKKSAVTTFDGKRVVKAVYDKNSGTSANPGVGGFSFSAVPDGLNKNAITFAWEVFYPKGFDFARGGKHGGTFIGHGAASGYQHSKTGASNRIMWQEKGGVIDYIYPPSDLKQKIPGLDPEGHGIGFFQDDFKNALKYDVWNRIEIGTKMNTFKNGIPQLDGESYVIVNGKKEVLKRINWSRSPDLLISRFDWNTFFGGPLPSPKNQVAYFTNFQMKKYELEHHHHHH | soluble |
| TPQQRRLSMARRTAASLGYNECVSYTFIDQASAALFGGGTDATMLENPISSEMSHMRPDLLPGLLAAAARNQARGFADLALFEAGPVFHGGEPGEQRAQIAGLLVGRTGPKDVHGAARAVDLYDAKADAEAVLAAMGAPAKVQILRDGDGWWHPGRHGRICLGPKKVLGVFGELHPRVLQAMDVKGPAVAFVLWPEEVPLPRKSGTTRAALAL | not soluble |
| TPQSITRKVARYIPGTVEHLQEQQQYARKIRDVTAQKVDQFSNVFHALSESFATFYQASDEQTDDSEVDLFLSKITEHSCQTCYKKNRCWVQNFDKTYDLMKQVMLETEEKEYASNRRLKKEFQQYCSKSKQVEELIEDELAHHHAHLTLKKKVQDSRRLVAEQLLGVSEVMADFSREIKREREQHFLQEEQIIEALQHFGIEIQHVEIYSLEQGNIDIEMTIPFSGHGESEKIIAPMLSDILEEQILVKAEQHSPHPNGYSHVAFGSTKSYRVSTGAAHAAKGGGLVSGDSYSMMELGARKYAAAISDGMGNGARAHFESNETIKLLEKILESGIDEKIAIKTINSILSLRTTDEIYSTLDLSIIDLQDASCKFLKVGSTPSFIKRGDQVMKVQASNLPIGIINEFDVEVVSEQLKAGDLLIMMSDGIFEGPKHVENHDLWMKRKMKGLKTNDPQEIADLLMEEVIRTRSGQIEDDMTVVVVRIDHNTPKWASIPVPAIFQNKQEI | not soluble |
